Reference: publication PMC8571082 (2021)

B1: Mint3NT, N-terminal fragment (1–214) of Mint3 [human] / factor inhibiting HIF-1 (FIH-1), full-length [human] (parent complex)
chain 1: MDFPTISRSPSGPPAMDLEGPRDILVPSEDLTPDSQWDPMPGGPGSLSRMELDESSLQELVQQFEALPGDLVGPSPGGAPCPLHIATGHGLASQEIADAHGLLSAEAGRDDLLGLLHCEECPPSQTGPEEPLEPAPRLLQPPEDPDEDSDSPEWVEGASAEQEGSRSSSSSPEPWLETVPLVTPEEPPAGAQSPETLASYPAPQEVPGPCDHED
chain 2: MAATAAEAVASGSGEPREEAGALGPAWDESQLRSYSFPTRPIPRLSQSDPRAEELIENEEPVVLTDTNLVYPALKWDLEYLQENIGNGDFSVYSASTHKFLYYDEKKMANFQNFKPRSNREEMKFHEFVEKLQDIQQRGGEERLYLQQTLNDTVGRKIVMDFLGFNWNWINKQQGKRGWGQLTSNLLLIGMEGNVTPAHYDEQQNFFAQIKGYKRCILFPPDQFECLYPYPVHHPCDRQSQVDFDNPDYERFPNFQNVVGYETVVGPGDVLYIPMYWWHHIESLLNGGITITVNFWYKGAPTPKRIEYPLKAHQKVAIMRNIEKMLGEALGNPQEVGPLLNTMIKGRYN

Variants of: B1
Test: ITC; measured three times for each FIH-1 mutant

Row | Variant | dG [kcal/mol]
1 | chain 2 E79A | -8.7
2 | chain 2 N171A | -8.7
3 | chain 2 Y71A | -8.6
4 | chain 2 K75A | -8.8
5 | chain 2 E250A | -9
6 | chain 2 D248A | -9.3
7 | chain 2 E29A | -9.1
